Source: paper PMC2185789 (The Journal of Experimental Medicine, 1980)

Target: C5b-8 complex (human, UniProt P01031 752-1676; P01031 19-673; P13671 22-934; P10643 23-843; P07357 31-584; …)
Experiment: negative-stain electron microscopy

- binding result: binds
B1: C9 (natural protein)
chain: not shown
